Experimental data from US20260022175A1 (Chugai, published 2026).

How the values were obtained:
[1] = molecular target: T1, human FcγRIIIa F allotype extracellular domain with C-terminal His-tag (human, UniProt P08637 17-208); assay: SPR Biacore T200, captured Ab, pH 7.4
T1 construct: extracellular domain; also called hFcγR IIIa F

[2] = molecular target: T2, human FcγRIIa H allotype extracellular domain with C-terminal His-tag (human, UniProt P12318 34-217); assay: SPR Biacore T200, captured Ab, pH 7.4
T2 construct: extracellular domain; also called hFcγR IIa H
T2 sequence (looked up): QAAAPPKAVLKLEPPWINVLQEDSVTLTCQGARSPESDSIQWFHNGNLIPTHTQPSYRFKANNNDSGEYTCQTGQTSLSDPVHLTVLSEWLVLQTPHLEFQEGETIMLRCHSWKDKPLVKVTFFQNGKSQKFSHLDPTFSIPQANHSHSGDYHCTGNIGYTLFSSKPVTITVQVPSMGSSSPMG

[3] = molecular target: T3, human FcγRIIIa V allotype extracellular domain with C-terminal His-tag (human, UniProt P08637 17-208); assay: SPR Biacore T200, captured Ab, pH 7.4
T3 construct: extracellular domain; also called hFcγR IIIa V
T3 sequence (P08637 17-208 F176V): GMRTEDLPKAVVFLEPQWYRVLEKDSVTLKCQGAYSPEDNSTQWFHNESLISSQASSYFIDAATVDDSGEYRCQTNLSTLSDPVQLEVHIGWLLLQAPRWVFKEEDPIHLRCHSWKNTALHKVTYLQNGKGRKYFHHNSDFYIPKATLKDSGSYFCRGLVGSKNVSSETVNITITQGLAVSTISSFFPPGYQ

[4] = molecular target: T4, human FcγRIa extracellular domain with C-terminal His-tag (human, UniProt P12314 16-292); assay: SPR Biacore T200, captured Ab, pH 7.4
T4 construct: extracellular domain; also called hFcγR Ia; hFcγRIa
T4 sequence (P12314 16-292): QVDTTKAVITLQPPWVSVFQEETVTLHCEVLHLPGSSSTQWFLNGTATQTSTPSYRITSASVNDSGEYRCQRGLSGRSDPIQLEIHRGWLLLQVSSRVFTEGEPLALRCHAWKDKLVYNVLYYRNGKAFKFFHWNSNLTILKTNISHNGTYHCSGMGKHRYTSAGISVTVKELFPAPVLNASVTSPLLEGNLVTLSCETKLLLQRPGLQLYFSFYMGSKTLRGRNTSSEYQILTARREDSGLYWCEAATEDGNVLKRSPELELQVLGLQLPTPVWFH

[5] = molecular target: T5, human FcγRIIa R allotype extracellular domain with C-terminal His-tag (human, UniProt P12318 34-217); assay: SPR Biacore T200, captured Ab, pH 7.4
T5 construct: extracellular domain; also called hFcγR IIa R
T5 sequence (looked up): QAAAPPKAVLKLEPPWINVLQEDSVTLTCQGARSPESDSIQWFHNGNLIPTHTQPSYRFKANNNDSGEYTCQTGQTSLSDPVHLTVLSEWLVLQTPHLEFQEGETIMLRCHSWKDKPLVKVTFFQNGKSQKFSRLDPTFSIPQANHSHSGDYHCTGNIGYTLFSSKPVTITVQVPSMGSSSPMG

[6] = molecular target: T1, human FcγRIIIa F allotype extracellular …; assay: SPR; KD of 04H1389-G1m/04L1305-k0MT divided by KD of variant
[7] = molecular target: T2, human FcγRIIa H allotype extracellular …; assay: as above
[8] = molecular target: T3, human FcγRIIIa V allotype extracellular …; assay: as above
[9] = molecular target: T4, human FcγRIa extracellular domain with …; assay: as above
human FcRn [10] = molecular target: T6, human FcRn (human, UniProt P55899 24-290; P61769 21-119); assay: as above
T6 construct: Prepared by the method of WO 2010/107110; also called hFcRn

[11] = molecular target: T5, human FcγRIIa R allotype extracellular …; assay: as above
human FcRn [12] = molecular target: T6, human FcRn; assay: SPR Biacore T200, captured Ab, pH 6.0, steady state
[13] = molecular target: T7, human FcγRIIb extracellular domain with C-terminal His-tag (human, UniProt P31994 43-217); assay: SPR; FcγRIIb bound amount per unit captured Ab
T7 construct: extracellular domain; also called hFcγR IIb
T7 sequence (looked up): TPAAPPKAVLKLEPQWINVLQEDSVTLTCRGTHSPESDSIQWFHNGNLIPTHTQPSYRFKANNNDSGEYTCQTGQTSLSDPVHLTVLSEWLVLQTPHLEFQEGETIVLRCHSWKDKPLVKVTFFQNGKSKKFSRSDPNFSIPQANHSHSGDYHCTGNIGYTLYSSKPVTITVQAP

[14] = molecular target: T7, human FcγRIIb extracellular domain with …; assay: SPR; binding amount divided by that of 04H1389-G1m/04L1305-k0MT

T1 sequence (P08637 17-208): as the sequence (P08637 17-208 F176V) above, with V160F counted along it

Kd [1]: 2.7 nM
Kd [2]: 35 nM
Kd [3]: 0.95 nM
Kd [4]: 0.061 nM
Kd [5]: 86 nM
Relative value to KD between G1m and hFcγRs [6]: 258
Relative value to KD between G1m and hFcγRs [7]: 30.8
Relative value to KD between G1m and hFcγRs [8]: 930
Relative value to KD between G1m and hFcγRs [9]: 1.1
Relative value to KD between G1m and hFcRn (human FcRn [10]): 2.7
Relative value to KD between G1m and hFcγRs [11]: 18.5
Kd (human FcRn [12]): 370 nM
Binding amount [13]: 0.034
Relative binding amount [14]: 3
B1: 04H1389-Km473/04L1305-k0MT//04H1389-Hm482/04L1305-k0MT (antibody)
heavy 1: EVQLVESGGGLVKPGGSLRLSCAASGFTFSSKTMNWVRQAPGKGLEWVSSISTQSHYIYYAESVKGRFTISRDNAKNSLYLQMNSLRAEDTAVYYCARYGKREDMLWVFDYWGQGTLVTVSSASTKGPSVFPLAPSSKSTSGGTAALGCLVKDYFPEPVTVSWNSGALTSGVHTFPAVLQSSGLYSLSSVVTVPSSSLGTQTYICNVNHKPSNTKVDKRVEPKSCDKTHTCPPCPAPEFQWGPMVFLFPPKPKDVLMISRTPEVTCVVVDVSDEEPEVKFNWYVDGVEVHNAKTKPREEQYNATYRVVSVLPVLHQDWLNGKEYKCKVSNDALPAPIEKTISKAKGQPREPQVCTLPPSREEMTKNQVSLWCLVKGFYPSDIAVEWESNGQPENNYKTTPPVLDSDGSFFLYSKLTVDKSRWQQGNVFSCSVMHEALHAHTTRKELSLSP
heavy 2: EVQLVESGGGLVKPGGSLRLSCAASGFTFSSKTMNWVRQAPGKGLEWVSSISTQSHYIYYAESVKGRFTISRDNAKNSLYLQMNSLRAEDTAVYYCARYGKREDMLWVFDYWGQGTLVTVSSASTKGPSVFPLAPSSKSTSGGTAALGCLVKDYFPEPVTVSWNSGALTSGVHTFPAVLQSSGLYSLSSVVTVPSSSLGTQTYICNVNHKPSNTKVDKRVEPKSCDKTHTCPPCPAPELLAGPSVFLFPPKPKDVLMISRTPEVTCVVVDVSHEEPEVKFNWYVDGVEVHNAKTKPREEQYNATYRVVSVLPVLHQDWLNGKEYKCKVSNDALPKPDEETISKAKGQPREPQVYTLPPSRCEMTKNQVSLSCAVKGFYPSDIAVEWESNGQPENNYKTTPPVLDSDGSFFLVSKLTVDKSRWQQGNVFSCSVMHEALHAHTTRKELSLSP
light: DIVMTQSPLSLPVTPGEPASISCDGPSTGVGDYNYVHWYQQKPGQAPRLLIYFTSKKPSGVPDRFSGSGSGTDFTLKISRVEAEDVGVYYCQTYAAPLGPMFGQGTKLEIKRTVAAPSVFIFPPSDEQLKSGTASVVCLLNNFYPREAKVQWKVDNALQSGNSQESVTEQDSKDSTYSLSSTLTLSKADYEKHKVYACEVTHQGLSSPVTKSFNRGEC
notes: Heterodimerized antibody; also called SW1389-ART6+ACT1
